According to US20260193363A1 (US Dept. of Health and Human Services, published 2026):

Legend:
[1] = biological target: EGFRvIII on DKMG-EGFRvIII cells (human glioblastoma line DKMG transduced with EGFRvIII); assay: cell-based or functional assay
[2] = biological target: T1, EGFRvIII on F98npEGFRvIII cells (rat glioma F98 transfected with nonphosphorylated EGFRvIII); assay: flow cytometry, antibodies added at 2 µg/ml, F98-npEGFRvIII cells
T1 construct: whole, on cells; also called F98-EGFRvIII

[3] = biological target: T2, EGFR overexpressed on cancer cell lines MDA-MB-468 and A431 (human, UniProt P00533 25-1210); assay: flow cytometry, antibodies added at 2 µg/ml, A431 cells
T2 construct: whole, on cells; also called overexpressed EGFR; cancer-expressed EGFR

[4] = biological target: T3, EGFRvIII extracellular domain, His-tagged (human); assay: BLI (Octet Red96), His-tagged antigen on Ni-NTA biosensors, antibody in solution, 30 C
T3 construct: extracellular domain; also called EGFRvIII-His; EGFRvIII-HIS

[5] = biological target: T2, EGFR overexpressed on cancer cell lines …; assay: flow cytometry, antibodies added at 2 µg/ml, MDA-MB-468 cells
[6] = biological target: T4, wild-type EGFR extracellular domain, His-tagged (human, UniProt P00533 25-645); assay: ELISA, hybridoma supernatant on His-tagged ECD on nickel-coated 96-well plate, OD450
T4 construct: extracellular domain; also called wtEGFR-His; EGFRwt ECD

[7] = biological target: T4, wild-type EGFR extracellular domain, …; assay: ELISA, purified antibody on His-tagged ECD, OD450
[8] = biological target: T5, wtEGFR at physiological levels on WI-38 cells (human, UniProt P00533 25-1210); assay: flow cytometry, antibodies added at 2 µg/ml, WI-38 cells
T5 construct: whole, on cells; also called normal cells

[9] = biological target: T6, wild-type EGFR on F98EGFR cells (rat glioma F98 transfected with full-length EGFR) (UniProt P00533 25-1210, limits assumed); assay: flow cytometry, antibodies added at 2 µg/ml, F98-EGFR cells
T6 construct: whole, on cells; also called wtEGFR on transfected F98 cells

B1: 40H3 MMAE antibody drug conjugate (antibody, V domains shown)
VH: QVQLKQSGPGLVQPSQSLSITCTVSGFSLTNYGIHWLRQSPGKGLEWLGMMWRGGGTDYNAAFISRLTITKDTSKSQVFFRMNNLQTNDTAIYYCARKGVGMGLGYWGQGTSVTVSS
VL: DIQMTQSPASQSASLGESVTITCLASQTIGTWVAWYQQKPGRSPQLLIYGATNLADGVPSRFSGSGSGTKFSFKISSLQAEDFVSYYCQQLYSNPYTFGGGTKLEIK
- IC50 (nM), cell viability, DKMG EGFRvIII cells [1]: 1.9 nM

B2: 40H3 DM1 antibody drug conjugate (antibody, V domains shown)
VH: QVQLKQSGPGLVQPSQSLSITCTVSGFSLTNYGIHWLRQSPGKGLEWLGMMWRGGGTDYNAAFISRLTITKDTSKSQVFFRMNNLQTNDTAIYYCARKGVGMGLGYWGQGTSVTVSS
VL: DIQMTQSPASQSASLGESVTITCLASQTIGTWVAWYQQKPGRSPQLLIYGATNLADGVPSRFSGSGSGTKFSFKISSLQAEDFVSYYCQQLYSNPYTFGGGTKLEIK
- IC50 (nM), cell viability, DKMG EGFRvIII cells [1]: 0.56 nM

B3: monoclonal antibody 40H3 (antibody, V domains shown)
VH: QVQLKQSGPGLVQPSQSLSITCTVSGFSLTNYGIHWLRQSPGKGLEWLGMMWRGGGTDYNAAFISRLTITKDTSKSQVFFRMNNLQTNDTAIYYCARKGVGMGLGYWGQGTSVTVSS
VL: DIQMTQSPASQSASLGESVTITCLASQTIGTWVAWYQQKPGRSPQLLIYGATNLADGVPSRFSGSGSGTKFSFKISSLQAEDFVSYYCQQLYSNPYTFGGGTKLEIK
notes: also called ma40H3 GS; 40H3 (full length antibody)
- Median : PE-A [2]: 1120
- Median : PE-A [3]: 3160
- Kd [4]: 0.27 nM
- koff [4]: 4.51e-05 s⁻¹
- kon [4]: 167000 M⁻¹ s⁻¹
- Median : PE-A [5]: 2140

B4: monoclonal antibody 3D10 (antibody, V domains shown)
VH: QVQLKQSGPGLVQPSQSLSIICTVSGFSLTRNGVHWVRQSPGKGLEWVGVIWRSGRTDYDAAFMSRLSITKDNSKSQVFFKMNSLQADDTAIYYCVKNGDDGNYGTYWGQGTLVTVSA
VL: DIVMSQSPSSLGVSVGEKVTMSCKSSQSLLDSRNQKNYLAWYQQKPGQSPKLLIYWASTRESGVPDRFTGSGSGTEFTLTISSVKAEDLAIYYCQQYYNYPYTFGGGTKLEIT
- Median : PE-A [2]: 1420
- binding result [6]: no binding
- Median : PE-A [3]: 196
- Median : PE-A [5]: 205

B5: monoclonal antibody 9G11 (antibody, V domains shown)
VH: QVQLKQSGPGLVQPSQSLSITCTVSGFSLTRNGVHWVRQSPGKGLEWVGVIWRGGRTDYDAAFMSRLSITKDNSKSQVFFKMNSLQADDTAIYYCVKNGDDGNYGTYWGQGTLVTVSA
VL: DIVMSQSPSSLGVSVGEKVTMSCKSSQSLLDSRNQKNYLAWYQQKPGQSPKLLIYWASTRESGVPDRFTGSGSGTEFTLTISSVKAEDLAIYYCQQYYNYPYTFGGGTKLEIT
- Median : PE-A [2]: 1010
- binding result [7]: no binding (tested: 5 ng/ml)
- Median : PE-A [3]: 160
- Median : PE-A [5]: 166

B6: monoclonal antibody 11E11 (antibody, V domains shown)
VH: QVQLKQSGPSLVQPSQSLSITCTVSGFSLTNYGVHWIRQSPGKGLEWLGVKWRGGRTDYNAAFMSRLSITRDNSRSQVFFKMNSLQTDDTAIYYCAKNGPFGNFAGYWGQGTLVTVSA
VL: DIVMSQSPSSLAVSVGEKVSLTCKSSQSLLDNQKHYLAWYQQKPGQSPKLLIYWASTRESGVPDRFTGSGSGTEFTLTISSVKAEDLAVYYCQQFYNYPYTFGGGTKLEIK
- Median : PE-A [2]: 1440
- binding result [7]: no binding (tested: 5 ng/ml)
- Median : PE-A [3]: 274
- Median : PE-A [5]: 216

B7: monoclonal antibody 1D9 (antibody, V domains shown)
VH: QVQLKQSGRSLVQPSQSLSITCTVSGFSLTDYGVHWIRQSPGKGLEWLGVIWRSGRTDYNAVFMSRLSITKDNSKSQVFFKMNGLQTDDTAIYYCAKNGPFGNFAGYWGQGTPVAVSA
VL: DIVMSQSPSSLAVSVGEKVTMRCRSSQSLLDSYHQKNYLAWYLQKPGQSPKLLIYWASTRESGVPDRFTGSGSGTDFTLTISSVKAEDLAVYYCQEYYRYPYTFGGGTKLEIK
- Median : PE-A [8]: 41.4
- Median : PE-A [2]: 1230
- binding result [6]: no binding
- Median : PE-A [9]: 45.5
- Median : PE-A [3]: 136
- Median : PE-A [5]: 166

B8: monoclonal antibody 11G3 (antibody, V domains shown)
VH: QVQLKQSGPSLVQPSQSLSITCTVSGFSLTNYGVHWVRQSPGKGLEWLGVMWRGGRTDYNAAFMSRLSITKDNSRSQVFFKMNSLQTDDAAIYYCAKNGPFGNFAGYWGQGTLVTVST
VL: DIVMSQSPSSLPVSVGEKVSLTCKSSRSLLDNQKHYLAWYQQKPGQSPKLLIYWASTRESGVPDRFTGSGSGTEFTLTISSVKAEDLAVYYCQQFYNYPYTFGGGTKLEIK
- Median : PE-A [8]: 39.6
- binding result [7]: no binding (tested: 5 ng/ml)
- Median : PE-A [9]: 37.9
- Median : PE-A [3]: 90.3
- Median : PE-A [5]: 90.3

B9: monoclonal antibody 4A4 (antibody, V domains shown)
VH: QVQLKQSGRSLVQPSQSLSITCTVSGFSLTDYGVHWIRQSPGKGLEWLGVIWRSGRTDYNAVFMSRLSITKDNSKSQVFFKMNGLLIEDTAIYYCAKNGPFGNFAGYWGQGTPVAVSA
VL: DIVMSQSPSSLAVSVGEKVTMRCRSSQSLLDSYHQKNYLAWYLQKPGQSPKLLIYWASTRESGVPDRFTGSGSGTDFTLTISSVKAEDLAAYYCQEYYRYPYTFGGGTKLEIK
- Median : PE-A [8]: 48
- Median : PE-A [2]: 1110
- binding result [7]: no binding (tested: 5 ng/ml)
- Median : PE-A [9]: 41.7
- Median : PE-A [3]: 83.3
- Median : PE-A [5]: 130
